Experimental data reported in patent US20220168440A1, “ANTIBODY-PYRROLOBENZODIAZEPINE DEPRIVATIVE CONJUGATE” (DAIICHI SANKYO COMPANY, LIMITED, priority 2019, published 2022).
Changes are numbered by the printed parent chain.

Assays:
[1] = system: KPL-4 cells; assay: Cell growth inhibition of drug 1 (4), CellTiter-Glo; type: cell-based; details: KPL4, 144 h; human breast cancer cell line; 6 days culture; read-out: anticellular effect IC50 on KPL-4 cells
Description: KPL-4 cells (Dr. Junichi Kurebayashi, Kawasaki Medical School, British Journal of Cancer, (1999) 79(5/6). 707-717), a human breast cancer cell line, were prepared with RPMI1640 Medium (Thermo Fisher Scientific; hereinafter, referred to as RPMI medium) containing 10% fetal bovine serum (Hyclone) to reach 6.25×10^3 cells/mL, and 80 μL portions of them were added to a 96-well cell culture microplate. After addition of the cells, the cells were cultured at 37° C. and 5% CO2 overnight.
On the next day, 20 μL portions of drug 1 diluted with RPMI medium to 100 nM, 20 nM, 4 nM, 0.8 nM, 0.16 nM, 0.032 nM, 6.4 pM, 1.3 pM, and 0.26 pM were added to the microplate. To each well without any antibody-drug conjugate, 20 μL of RPMI medium was added. KPL-4 was cultured at 37° C. and 5% CO2 for 6 days. After culturing, the microplate was taken out of the incubator, and left to stand at room temperature for 30 minutes. CellTiter-Glo Luminescent Cell Viability Assay (Promega Corporation) in an amount equivalent to that of the culture solution was added, and stirred using a plate mixer. The microplate was left to stand at room temperature for 10 minutes, and thereafter the amount of emission was measured by using a plate reader (PerkinElmer). Cell survival rates were calculated by using the same formula as in Example 37.

[2] = target: T1, human CLDN6 (human, UniProt P56747 1-220); assay: immunoprecipitation from NTERA-2 cell lysate, SDS-PAGE, mass spectrometry of the 18 kDa band
T1 construct: Four-transmembrane protein, NP_067018; It was also expressed on CHO-K1 cells by cDNA transfection; In the immunoprecipitation it was the endogenous protein from NTERA-2 cell lysate; also called hCLDN6; claudin-6
T1 sequence: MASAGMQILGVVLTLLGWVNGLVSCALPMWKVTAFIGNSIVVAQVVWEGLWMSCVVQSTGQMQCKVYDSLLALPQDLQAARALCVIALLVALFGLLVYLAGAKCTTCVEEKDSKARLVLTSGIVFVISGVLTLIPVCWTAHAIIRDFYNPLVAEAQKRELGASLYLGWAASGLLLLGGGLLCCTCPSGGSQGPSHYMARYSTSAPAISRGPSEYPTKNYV

[3] = target: T2, human CLDN4 (human, UniProt O14493 1-209); assay: flow cytometry on transiently transfected 293T cells
T2 construct: whole, on cells
T2 sequence (looked up): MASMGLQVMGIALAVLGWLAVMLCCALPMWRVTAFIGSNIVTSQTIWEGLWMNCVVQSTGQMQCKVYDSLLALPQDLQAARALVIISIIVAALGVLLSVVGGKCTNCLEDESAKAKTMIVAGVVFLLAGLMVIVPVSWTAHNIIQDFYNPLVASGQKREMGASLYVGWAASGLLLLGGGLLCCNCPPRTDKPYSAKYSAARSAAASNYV
Description: (§1) Binding activity of the mouse anti-CLDN6 antibodies produced in Example 6 to human CLDN6 and its family molecules, CLDN3, CLDN4, and CLDN9, was evaluated by using a flow cytometry method. Human CLDN3/pCMV6-Entry, human CLDN4/pCMV6-Entry, human CLDN6/pCMV-Entry, human CLDN9/pCMV6-Entry, or pCMV6-Entry purchased from OriGene Technologies, Inc. was transiently transferred into 293T cells (Thermo Fisher Scientific, HCL4517) by using Lipofectamine 2000 (Thermo Fisher Scientific), and the cells were cultured under conditions of 37° C. and 5% CO₂ overnight, and then a cell suspension was prepared. […] The cells were washed twice with Dulbecco's phosphate buffered saline (Sigma-Aldrich Co. LLC) containing 5% fetal bovine serum (Hyclone) (hereinafter, referred to as 5% FBS-containing PBS), and FLUORESCEIN-CONJUGATED GOAT IGG FRACTION TO MOUSE IGG (WHOLE MOLECULE) (MP Biomedicals, Inc.) 500-fold diluted with 5% FBS-containing PBS was then added thereto, and the cells were suspended and left to stand at 4° C. for 1 hour. After washing twice with 5% FBS-containing PBS, detection was carried out by using a flow cytometer (FC500; Beckman Coulter, Inc.). Data analysis was carried out by using FlowJo (Tree Star, Inc.). […] In each graph in FIG. 40, the ordinate represents FITC fluorescence intensity indicating the amount of the binding antibody and the abscissa represents antibody concentrations.
(§2) The binding activity of the humanized anti-CLDN6 antibody produced in Example 10 to human CLDN6 and its family molecules, CLDN3, CLDN4, and CLDN9, was evaluated by using a flow cytometry method.

[4] = target: T3, human CLDN9 (human, UniProt O95484 1-217); assay: as above
T3 construct: NP_066192; It was expressed on 293T cells transiently transfected with human CLDN9/pCMV6-Entry (OriGene); also called claudin-9
T3 sequence: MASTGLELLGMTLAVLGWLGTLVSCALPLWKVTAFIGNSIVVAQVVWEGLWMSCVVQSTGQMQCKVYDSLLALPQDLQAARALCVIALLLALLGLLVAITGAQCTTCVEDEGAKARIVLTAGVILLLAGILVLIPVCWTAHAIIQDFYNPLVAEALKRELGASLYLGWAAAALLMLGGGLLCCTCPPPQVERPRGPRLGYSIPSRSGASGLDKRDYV
Description: as §1, §2

[5] = target: T4, human CLDN3 (human, UniProt O15551 1-220); assay: as above
T4 construct: whole, on cells
T4 sequence (looked up): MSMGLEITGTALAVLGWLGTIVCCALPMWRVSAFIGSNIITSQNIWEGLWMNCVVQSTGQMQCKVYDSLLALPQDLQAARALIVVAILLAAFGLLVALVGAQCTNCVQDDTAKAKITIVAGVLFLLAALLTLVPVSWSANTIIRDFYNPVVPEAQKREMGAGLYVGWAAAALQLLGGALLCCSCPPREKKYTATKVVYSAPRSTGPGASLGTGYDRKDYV
Description: as §1, §2

[6] = system: NIH:OVCAR-3; assay: Internalization activity by Mab-ZAP (saporin-conjugated anti-mouse IgG), cell survival; type: cell-based; details: human CLDN6-positive ovarian cancer cell line NIH:OVCAR-3; antibody 1 nM, Mab-ZAP 0.5 nM; 5 days
Description: (§3) Internalization activity of the mouse anti-CLDN6 antibodies B1 and C7 was evaluated by using the anti-mouse IgG reagent, to which a toxin that inhibits protein synthesis (saporin) had been conjugated, Mab-ZAP (Advanced Targeting Systems). In this evaluation, Mab-ZAP is incorporated into cells in a manner depending on the internalization activity of a mouse anti-CLDN6 antibody, and saporin, which inhibits protein synthesis, is released in the cells to suppress cell growth.
(§4) JEG-3(ATCC HTB-36), a human choriocarcinoma cell line of human CLDN6-positive cells, NIH:OVCAR-3 (ATCC HTB-161), a human ovarian cancer cell line of human CLDN6-positive cells, or BxPC-3 (ATCC CRL-1687), a human pancreatic cancer cell line of human CLDN6-negative cells, was seeded in a 96-well cell culture microplate at 2×10^3 cells/well, and cultured under conditions of 37° C. and 5% CO2 overnight. On the next day, a mixed solution obtained by mixing each mouse anti-CLDN6 antibody or mouse IgG1 antibody (R&D Systems, Inc.) to a final concentration of 1 nM, with Mab-ZAP (final concentration: 0.5 nM) or AffiniPure Goat Anti-Mouse IgG, Fcγ Fragment Specific (Jackson ImmunoResearch Laboratories Inc.) (final concentration: 0.5 nM), without conjugated toxin, was added, and the cells were cultured under conditions of 37° C. and 5% CO2 for 5 days. The number of surviving cells was determined through quantification of ATP activity by using CellTiter-Glo Luminescent Cell Viability Assay (Promega Corporation).

[7] = system: JEG-3; assay: as above; type: cell-based; details: human CLDN6-positive choriocarcinoma cell line JEG-3; antibody 1 nM, Mab-ZAP 0.5 nM; 5 days
Description: as §3, §4

[8] = system: BxPC-3; assay: as above; type: cell-based; details: human CLDN6-negative pancreatic cancer cell line BxPC-3; antibody 1 nM, Mab-ZAP 0.5 nM; 5 days
Description: as §3, §4

[9] = target: T5, human claudin-6 (Homo sapiens, UniProt P56747); assay: FACS analysis of 218B1/218C7 antibodies on human claudin-6-expressing CHO-K1 cells; type: binding; details: forced expression by cDNA transfection
T5 construct: expressed in transfected cells; host or cells: CHO-K1 cells
T5 sequence (P56747 1-220): T1 sequence
Description: Since the antigen for the 218B1 antibody and 218C7 antibody was estimated to be claudin-6 from the mass spectrometry, forced expression analysis by cDNA transfection was carried out.

[10] = target: T1, human CLDN6; assay: FACS on CHO-K1 cells transfected with human claudin-6 cDNA

Molecule: COc1ccc(C2=CN3C(=O)c4cc(OC)c(OCCCCCOc5cc6c(cc5OC)C(=O)N5CC7(CC7)C[C@H]5C=N6)cc4NC[C@@H]3C2)cc1 [Drug 1, (11a′S)-7′-Methoxy-8′-[(5-{[(11aS)-7-methoxy-2-(4-methoxyphenyl)-5-oxo-5,10,11,11a-tetrahydro-1H-pyrrolo[2,1-c][1,4]benzodiazepin-8-yl]oxy}pentyl)oxy]-1′,11a′-dihydro-5′H-spiro[cyclopropane-1,2′-pyrrolo[2,1-c][1,4]benzodiazepine]-5′-one]
- IC50 [1]: 0.01 to 0.02 nM

B1: mouse anti-CLDN6 antibody B1 (antibody, V domains shown)
VH: EVQLQQSGPELVKPGASVKISCKTSGYTFTEYTMHWVQQSHGKSLEWIGGVNPNSGDTSYNQKFKGKATLTVDKSSSTAYMELRSLTSEDSAVYYCARPGGYDVGYYAMDYWGQGTSVTVSS
VL: DIQMTQTASSLSASLGDRVTISCRASQDINNYLNWYQQKPDGTVKLLIYFTSRLHSGVPSRFSGSGSGTHYSLTITNLEQEDIATYFCQQGYPLPWTFGGGTKLEIK
notes: Mouse monoclonal antibody purified from hybridoma 218B1 culture supernatant; a mouse IgG1 antibody was used as the control; also called B1 antibody; 218B1 antibody
- binding result [2]: binds
- binding result [3]: no binding (tested: 30 µg/mL (highest concentration tested))
- binding result [4]: binds
- binding result [5]: no binding (tested: 30 µg/mL (highest concentration tested))

B2: C7: mouse anti-CLDN6 antibody; heavy/light chain variable regions SEQ ID NO: 25 and 23 (antibody, listed as Mus musculus, V domains shown)
VH: B1 VH
VL: B1 VL with F50S, N77H
modifications: amino acid sequence of variable region of C7 antibody heavy chain; amino acid sequence of variable region of C7 antibody light chain
- cell growth-suppressing effect (relative survival rate) with Mab-ZAP [6]: cell growth-suppressing effect
- cell growth-suppressing effect (relative survival rate) with Mab-ZAP [7]: cell growth-suppressing effect
- cell growth-suppressing effect (relative survival rate) with Mab-ZAP [8]: no cell growth-suppressing effect
- FACS reaction for human claudin-6-expressing CHO-K1 cells [9]: strong positive reaction

B3: mouse anti-CLDN6 antibody C7 (antibody, V domains shown)
VH: B1 VH
VL: B1 VL with F50S, N77H
notes: Mouse monoclonal antibody purified from hybridoma 218C7 culture supernatant; a mouse IgG1 antibody was used as the control; also called C7 antibody; 218C7 antibody
- binding result [3]: no binding (tested: 30 µg/mL (highest concentration tested))
- binding result [4]: binds
- binding result [5]: no binding (tested: 30 µg/mL (highest concentration tested))
- binding result [10]: binds
